Data reported in article PMC7948507, “Active site metals mediate an oligomeric equilibrium in Plasmodium M17 aminopeptidases” (The Journal of Biological Chemistry, 2020).

Assays:
[1] = target: the molecule itself; assay: SEC-MALS; 100 μl samples at 3 mg/ml, Superdex S200 Increase 10/300 GL, 50 mM HEPES pH 8.0, 0.3 M NaCl, no metal added
[2] = target: the molecule itself; assay: AUC; sedimentation velocity, 0.5 mg/ml, 20 °C, 40,000 rpm, 50 mM HEPES pH 8.0, 0.3 M NaCl, no metal added
[3] = target: the molecule itself; assay: crystal structure; 0.1 M HEPES pH 6.5, 15% PEG 3350, 0.15 M (NH4)2SO4; two hexamers in the asymmetric unit
[4] = target: the molecule itself; assay: SEC; in the presence of 100 mM EDTA
[5] = target: the molecule itself; assay: AUC; sedimentation velocity, 0.5 mg/ml, 20 °C, 50 mM HEPES pH 8.0, 0.3 M NaCl with 50 μM MnCl2

Protein | stoichiometry N [1] | binding result [2] | also measured
Plasmodium falciparum M17 aminopeptidase PfA-M17 (residues 84-605), wild type (enzyme, UniProt Q8IL11 84-605, looked up, M17 leucyl aminopeptidase of Plasmodium falciparum, residues 84-605; residues 1-83 (asparagine-rich low complexity region) omitted; In solution a metal-dependent equilibrium of monomer, dimer, tetramer and hexamer; also called PfLAP; PfA-M17 WT; source: E. coli BL21 DE3, purified (Ni-NTA, SEC)) MASEVPQVVSLDPTSIPIEYNTPIHDIKVQVYDIKGGCNVEEGLTIFLVNNPGKENGPVKISSKVNDKNVSEFLKDENMEKFNVKLGTSKHFYMFNDNKNSVAVGYVGCGSVADLSEADMKRVVLSLVTMLHDNKLSKLTVVFEINVDKNLFRFFLETLFYEYMTDERFKSTDKNVNMEYIKHLGVYINNADTYKEEVEKARVYYFGTYYASQLIAAPSNYCNPVSLSNAAVELAQKLNLEYKILGVKELEELKMGAYLSVGKGSMYPNKFIHLTYKSKGDVKKKIALVGKGITFDSGGYNLKAAPGSMIDLMKFDMSGCAAVLGCAYCVGTLKPENVEIHFLSAVCENMVSKNSYRPGDIITASNGKTIEVGNTDAEGRLTLADALVYAEKLGVDYIVDIATLTGAMLYSLGTSYAGVFGNNEELINKILNSSKTSNEPVWWLPIINEYRATLNSKYADINNISSSVKASSIVASLFLKEFVQNTAWAHIDIAGVSWNFKARKPKGFGVRLLTEFVLNDAL | 6 | – | stoichiometry N [2]: 2
PfA-M17 (D379A + E461L) (enzyme, also called PfA-M17(AL); PfA-M17 (AL); source: E. coli BL21 DE3, purified (Ni-NTA, SEC)) MASEVPQVVSLDPTSIPIEYNTPIHDIKVQVYDIKGGCNVEEGLTIFLVNNPGKENGPVKISSKVNDKNVSEFLKDENMEKFNVKLGTSKHFYMFNDNKNSVAVGYVGCGSVADLSEADMKRVVLSLVTMLHDNKLSKLTVVFEINVDKNLFRFFLETLFYEYMTDERFKSTDKNVNMEYIKHLGVYINNADTYKEEVEKARVYYFGTYYASQLIAAPSNYCNPVSLSNAAVELAQKLNLEYKILGVKELEELKMGAYLSVGKGSMYPNKFIHLTYKSKGDVKKKIALVGKGITFASGGYNLKAAPGSMIDLMKFDMSGCAAVLGCAYCVGTLKPENVEIHFLSAVCENMVSKNSYRPGDIITASNGKTIEVGNTDALGRLTLADALVYAEKLGVDYIVDIATLTGAMLYSLGTSYAGVFGNNEELINKILNSSKTSNEPVWWLPIINEYRATLNSKYADINNISSSVKASSIVASLFLKEFVQNTAWAHIDIAGVSWNFKARKPKGFGVRLLTEFVLNDAL | – | binds | –
Pv-M17Δ125-151 (enzyme, also called Pv-M17 N-terminal loop deletion mutant; source: E. coli BL21 DE3, purified (Ni-NTA, SEC)) MATTVPQVVSLDPTTIPIDYHTPIDDLSIEVKDISAEACPADEGLIVFLLNSQIKINSSVKDNTINEFLKEGNMENFTGKLGTSKSFYIANDQKKYVSLAYVGCGPANEETELEIRKVAYALVTLLHDSKHKKVSIIFEIKIEEALFRFFLEHLFYEYVTDERFKSADKSTETDFIKNLSLHIANADAYKGQIDKARVYFYGTYYAAQLIAAPSNYCNPVSLSNAAVELAQKVNLECKILDVKELEELKMGAYLSVGKGSMYPNKFIHLTYKGAQTGASQNEKKKIALIGKGITFDSGGYNLKAAPGSMIDLMKFDMSGCAAVLGCAYCIGTIKPDNVEVHFLSAVCENMVSKNSYRPGDIITASNGKTIEVGNTDAEGRLTLADALVYAEKLGVDYIVDIATLTGAMLYSLGTSYAGVFGNNDQLINKILSSSKTSNEPVWWLPIINEYRSSLNSKYADLNNISSSVKASSVVASLFLKEFIENTPWAHIDIAGVSWNFKARKPKGFGVRLLTEFVLNDAV | – | – | stoichiometry N [3]: 6
Plasmodium vivax M17 aminopeptidase Pv-M17 (residues 73-621), wild type (enzyme, UniProt A5K3U9 73-621, looked up, M17 leucyl aminopeptidase of Plasmodium vivax, residues 73-621; N-terminal truncation of 72 residues; it is residues 73-621; Synthetic gene (DNA 2.0) in pJ404; also called PvLAP; Pv-M17 WT; source: E. coli BL21 DE3, purified (Ni-NTA, SEC)) MATTVPQVVSLDPTTIPIDYHTPIDDLSIEVKDISAEACPADEGLIVFLLNSAPKHSSSGGSGGNGGSAGSSGNGEGGAQIKINSSVKDNTINEFLKEGNMENFTGKLGTSKSFYIANDQKKYVSLAYVGCGPANEETELEIRKVAYALVTLLHDSKHKKVSIIFEIKIEEALFRFFLEHLFYEYVTDERFKSADKSTETDFIKNLSLHIANADAYKGQIDKARVYFYGTYYAAQLIAAPSNYCNPVSLSNAAVELAQKVNLECKILDVKELEELKMGAYLSVGKGSMYPNKFIHLTYKGAQTGASQNEKKKIALIGKGITFDSGGYNLKAAPGSMIDLMKFDMSGCAAVLGCAYCIGTIKPDNVEVHFLSAVCENMVSKNSYRPGDIITASNGKTIEVGNTDAEGRLTLADALVYAEKLGVDYIVDIATLTGAMLYSLGTSYAGVFGNNDQLINKILSSSKTSNEPVWWLPIINEYRSSLNSKYADLNNISSSVKASSVVASLFLKEFIENTPWAHIDIAGVSWNFKARKPKGFGVRLLTEFVLNDAV | 2 | – | stoichiometry N [4]: 4; stoichiometry N [5]: 6
Pv-M17 (D395A and E477L) (enzyme, also called Pv-M17(AL); Pv-M17 (AL); source: E. coli BL21 DE3, purified (Ni-NTA, SEC)) MATTVPQVVSLDPTTIPIDYHTPIDDLSIEVKDISAEACPADEGLIVFLLNSAPKHSSSGGSGGNGGSAGSSGNGEGGAQIKINSSVKDNTINEFLKEGNMENFTGKLGTSKSFYIANDQKKYVSLAYVGCGPANEETELEIRKVAYALVTLLHDSKHKKVSIIFEIKIEEALFRFFLEHLFYEYVTDERFKSADKSTETDFIKNLSLHIANADAYKGQIDKARVYFYGTYYAAQLIAAPSNYCNPVSLSNAAVELAQKVNLECKILDVKELEELKMGAYLSVGKGSMYPNKFIHLTYKGAQTGASQNEKKKIALIGKGITFASGGYNLKAAPGSMIDLMKFDMSGCAAVLGCAYCIGTIKPDNVEVHFLSAVCENMVSKNSYRPGDIITASNGKTIEVGNTDALGRLTLADALVYAEKLGVDYIVDIATLTGAMLYSLGTSYAGVFGNNDQLINKILSSSKTSNEPVWWLPIINEYRSSLNSKYADLNNISSSVKASSVVASLFLKEFIENTPWAHIDIAGVSWNFKARKPKGFGVRLLTEFVLNDAV | – | binds | –
